Laboratory results published in US9738880B2, “Lysosomal protein targeting sequence and therapeutic applications of same” (Children's Hospital Medical Center, priority 2013, dated 2017).
Changes are numbered by the printed parent chain. Numbers in names are those of the source. Entries after “also recorded” stand apart in the source; their conditions may differ.

T1: ldLIMP2 (Homo sapiens, UniProt Q14108)
T1 construct: Purified luminal domain LIMP-2 (1d-LIMP2) was custom made (Sino Biological Inc., PRC.); purchased Sino Biological Inc
T1 sequence (Q14108 28-433 limits assumed): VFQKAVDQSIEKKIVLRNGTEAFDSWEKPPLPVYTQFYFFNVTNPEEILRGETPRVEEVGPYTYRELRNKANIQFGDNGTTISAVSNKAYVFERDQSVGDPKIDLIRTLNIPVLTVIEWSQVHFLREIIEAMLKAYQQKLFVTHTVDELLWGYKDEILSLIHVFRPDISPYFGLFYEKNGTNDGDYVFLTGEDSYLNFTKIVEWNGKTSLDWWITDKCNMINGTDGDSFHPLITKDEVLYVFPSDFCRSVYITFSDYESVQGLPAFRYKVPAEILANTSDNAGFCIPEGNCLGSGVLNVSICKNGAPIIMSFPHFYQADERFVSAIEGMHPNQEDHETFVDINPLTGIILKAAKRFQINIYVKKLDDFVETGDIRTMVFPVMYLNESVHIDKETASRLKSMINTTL

B1: Human WT: wild type human GCase (acid β-glucosidase, SEQ ID NO 2) expressed in Gba1−/− cells (protein, listed as Homo sapiens)
chain: ARPCIPKSFGYSSVVCVCNATYCDSFDPPTFPALGTFSRYESTRSGRRMELSMGPIQANHTGTGLLLTLQPEQKFQKVKGFGGAMTDAAALNILALSPPAQNLLLKSYFSEEGIGYNIIRVPMASCDFSIRTYTYADTPDDFQLHNFSLPEEDTKLKIPLIHRALQLAQRPVSLLASPWTSPTWLKTNGAVNGKGSLKGQPGDIYHQTWARYFVKFLDAYAEHKLQFWAVTAENEPSAGLLSGYPFQCLGFTPEHQRDFIARDLGPTLANSTHHNVRLLMLDDQRLLLPHWAKVVLTDPEAAKYVHGIAVHWYLDFLAPAKATLGETHRLFPNTMLFASEACVGSKFWEQSVRLGSWDRGMQYSHSIITNLLYHVVGWTDWNLALNPEGGPNWVRNFVDSPIIVDITKDTFYKQPMFYHLGHFSKFIPEGSQRVGLVASQKNDLDAVALMHPDGSAVVVVLNRSSKDVPLTIKDPAVGFLETISPGYSIHTYLWRRQ
B2: TAD: human GCase with TKD (407-409) replaced by TAD (protein)
chain: B1 chain with K408A
B3: AAA: human GCase with triple alanine substitution of TKD (positions 407-409) (protein, listed as Homo sapiens)
chain: B1 chain with T407A, K408A, D409A
B4: AKD: human GCase with TKD (407-409) replaced by AKD, as named in figure legends (protein, UniProt P04062 40-536, looked up, variant T407A)
Lysosomal acid …: B1 chain with T407A
B5: AKA: human GCase with TKD (407-409) replaced by AKA (protein, listed as Homo sapiens)
chain: B1 chain with T407A, D409A
B6: D399E: human GCase variant with charge conserved D399E (ESPIIV, SEQ ID NO 20) (protein)
chain: B1 chain with D399E

How the values were obtained:
ldLIMP2 = target: T1, ldLIMP2; assay: Immunoprecipitation of alanine substituted GCases (TKD sequence) with ldLIMP2; format: binding; conditions: for binding of GCase variant to ldLIMP2, in words: GCase:LIMP2 1:1, immunoblot, FIG. 6
From the text: FIG. 6A-6E: Immunoprecipitation of the alanine substituted GCases in the TKD sequence with ldLIMP2. In panels shown in FIG. 6A to FIG. 6D, the lanes 1 through 6 correspond to the band densities indicated by the bars in FIG. 6E. […] The quantitative results are shown in (FIG. 6E) in which 1, 2, 3, and 4 correspond to WT, AAA, AKA, and AKD, respectively.
Immunoprecipitation of GCases with mutations in the TKD sequence: For immunoblots, Gba1 knockout mouse fibroblasts (null/null) were transfected with the GBA1 constructs (WT or mutants) and expressed for 5 days. The GCases from harvested cell lysates were purified using a GCase antibody affinity column (Dynabeads protein G crosslinked (BS3) with rabbit anti-human GCase antibody). The purified GCases were then mixed with LIMP2 (1:1), incubated (30 min.), and applied to another affinity column (Dynabeads protein G crosslinked (BS3) with rabbit anti-LIMP2 antibody). Aliquots of each step (loading, wash and eluent) were collected and analyzed on 12.5% SDS gels. Immunoblots were developed using anti-human GCase antibody and AP conjugated color development kits. Mock experiments with either non-LIMP2 proteins added or no GCases added, were used as control. The quantitations of these immunoprecipitation data were obtained from densitometry measurements of the gels. The no-LIMP-2 bars are the controls for comparison, since GCase was processed through all steps without LIMP-2 to account for any losses of GCase; About 50% of the GCase was lost during processing.

[1] = tested on: Gba1 null/null mouse fibroblasts; assay: Immunofluorescence co-localization of expressed GCase constructs (lysosome vs ER/Golgi); format: cell-based; conditions: for localization of GCase DSPIIV variants to the lysosome (Lamp1 / LIMP-2 co-localization), in words: transient transfection, FIG. 10A; for co-localization to / retention in the ER/Golgi, in words: calnexin or calreticulin
From the text: Immunofluorescence studies (IF): Mouse Gba1 null/null were used for the host cells for all transfection experiments. pCMV-AC-GFP Mammalian cell expression vector was used for expression of various GCases that included the TKD region (amino acids 407, 408 and 409) or the DSPIIV (SEQ ID NO 15) region (amino acids 399-404). Direct-labeled first antibodies were applied for IF detection; including anti-human GCase, -Calreticulin, -calnexin, -LIMP2, and -Lamp1. Lysotracker and ER tracker (Invitrogen) were also used as indicated. Analyses were done with a Zeiss AxioVert 200M with ApoTome. Co-localization analyses to obtain Pearson Indices were conducted using a module in the Axiovision 4.8 software.
Initial studies to localize the targeting peptide were conducted with GCase-GFP fusion constructs that had COOH-terminal deletions of GCase (FIG. 1). The constructs are designated as GCase-XX or XXX where the Xs represent the number of GCase amino acids deleted from the COOH-terminus. These constructs were transfected into and expressed in Gba1 null/null mouse fibroblasts using the CMV promoter (pCMV-AC-GFP or YFP) Immunofluorescence analyses using anti-human GCase IgG (green) and Lysotracker (Red) were used for colocalization of GCase to the lysosome (Red) or GCase (green) and Calreticulin or Calnexin (Red) for colocalization to the ER or Golgi (FIG. 2). […] Since LIMP-2 is the receptor for targeting of GCase to the lysosome, our working hypothesis was that the peptide sequence for binding of GCase to LIMP-2 was located within amino acids 347-422.

Gba1−/− cells = assay: Proportion of GCase protein in cells and media; format: cell-based, mouse; conditions: for % Secreted: ng GCase in media / (ng in media + ng in lysates) × 100
From the text: (§1) FIG. 11A-FIG. 11C: Secretion and retention of GCase with alanine variants in the TDK (FIG. 11A) or DSPIIV (SEQ ID NO 15) (FIG. 11B and FIG. 11C) sequences. FIG. 11A depicts activities in the media of Gba1−/− fibroblasts following transient transfections of each of the specified alanine substituted GCases in the TDK region. […] FIG. 11B depicts in the Left Panel: Activities in the media following transient transfections of various DSPIIV (SEQ ID NO 15) alanine substituted GCases and the % of GCase secreted. The latter was calculated as {ng GCase (in media)/[ng GCase (in media)+ng (GCase in lysates)]}×100 (also see Table 2). […] The transfections alone (Null+lipo) had no effect. […] FIG. 11C deicts in cellular lysate GCase activities from the various alanine substituted GCases in the DSPIIV (SEQ ID NO 15) sequence as indicated. […] The doubly alanine substituted GCase had little intracellular activity, i.e., nearly all the GCase was secreted into the media.

Gba1−/− fibroblasts = assay: GCase activity in media and cell lysates after transient transfection (secretion and retention); format: cell-based, mouse
From the text: as §1
(§2) Enzyme Assays: Cell pellets were homogenized in 0.25% Na-taurocholate and 0.25% Triton X-100. GCase activities were determined fluorometrically with 4 mM 4MU-Glc in 0.2M/0.1M citric-phosphate, pH 5.6 (18, 54)

[2] = CRIM specific activity of GCase variants (activity per cross-reacting immunological material); format: biochemical; conditions: for CRIM specific activity relative to WT (assigned 100%): FIG. 11A, 11B right panels
Description: as §2
Corresponding effects on the secretion of GCases from the cells containing various mutations in DSPIIVDITDK were found by assessing the activity of GCases in the media and cell lysate (FIG. 11 A-C). […] Using this assessment, the ratio of CRIM specific activities relative to WT (assigned 100%) for AAA, TAD, and AKA were 20%, 32%, and 49%, respectively (FIG. 11A, right panel), or that more GCase protein was required from the respective mutants to achieve the same enzyme activity as the WT. […] For the other mutants this ranged from 22-36%. This compares to ˜0% for the WT or D399E GCases Immunoaffinity anti-GCase column purification of the various GCases from media confirmed the excesses of these mutant GCases and the inability to detect WT or D399E GCases in media (data not shown).

Molecule	% Secreted (Gba1−/− cells) [%]	binding of GCase variant to ldLIMP2, in words (ldLIMP2)	CRIM specific activity relative to WT (assigned 100%) [2] [%]	lysosomal localization of GCases with alanine substitutions in the TKD sequence, in words ([1]; FIG. 5)	co-localization to / retention in the ER/Golgi, in words [1]	GCase activity in the media / secretion, in words (Gba1−/− fibroblasts; media, FIG. 11A, 11B)	further results
B1	~0						binding of GCase variant to ldLIMP2, in words (ldLIMP2; listed as WT): nearly complete binding; also recorded: bound similarly; localization of GCase DSPIIV variants to the lysosome (Lamp1 / LIMP-2 co-localization), in words ([1]; listed as WT): targeted to the lysosomes; also recorded: co-localization of GCase (FITC) with either Lamp 1 (Red) or LIMP-2; Total GCase (Gba1−/− cells; cellular + media, mean ± SD, n = 3): 23 ± 4 ng; Cellular GCase (Gba1−/− cells; total ng, mean ± SD, n = 3): 23 ± 4 ng; Media GCase (Gba1−/− cells; total ng, mean ± SD, n = 3): 0 ng
B2		bound similarly	32				increase of GCase activity in the media compared to WT (Gba1−/− fibroblasts; media, transient transfection, FIG. 11A, 11B): ~8 fold
B3		essentially no binding; also recorded: did not bind	20	no lysosomal localization	majority of the enzymes co-localized to the ER/Golgi; also recorded: abundant colocalization to the ER	the least	
B4		somewhat less binding				greatest increases	enzyme localized to the lysosome ([1]; TKD sequence variants, FIG. 5): about 50%
B5		much less bound	49	less lysosomal localization	majority of the enzymes co-localized to the ER/Golgi		binding of GCase variant to ldLIMP2 (ldLIMP2; GCase on beads vs wash, FIG. 6C): about 50%
B6	~0					no media activity above background	Pearson Indices for co-localization to the lysosome, in words ([1]; DSPIIV variants, FIG. 10B): did not alter the co-localization compared to WT; localization of GCase DSPIIV variants to the lysosome (Lamp1 / LIMP-2 co-localization), in words [1]: targeted to the lysosomes; localization of GCase DSPIIV variants to the lysosome (Lamp1 / LIMP-2 co-localization), in words ([1]; listed as E399): did not alter the cellular localization or secretion of GCase; localization of GCase DSPIIV variants to the lysosome (Lamp1 / LIMP-2 co-localization), in words ([1]; listed as ESPIIV): co-localization of GCase (FITC) with either Lamp 1 (Red) or LIMP-2; GCase activity in cell lysates, in words (Gba1−/− fibroblasts; cell lysates, FIG. 11C): equal intracellular activities; GCase activity in the media / secretion, in words (Gba1−/− fibroblasts; media, FIG. 11A, 11B, listed as E399): did not alter the cellular localization or secretion of GCase; GCase activity in the media / secretion, in words (Gba1−/− fibroblasts; media, FIG. 11A, 11B, listed as ESPIIV): did not alter secretion; CRIM specific activity, in words ([2]; FIG. 11B right panel): minor change in CRIM specific activity
